For 1 substance, EC50 results are on record in patent US20200268901A1.

pEC50: −log10 of the molar value.

The target in this experiment is human GITR on cells (activated human T cells; 3A9-hGITR cells) (human) (UniProt Q9Y5U5). The experiment in a line: flow cytometry on anti-CD3/CD28-activated human CD4 T cells, GMFI (PE); fitted value of a flat control curve, unit from the axis. (In general: In flow cytometry, cells or beads pass a laser one at a time.)
human GITR on cells (activated human T cells; 3A9-hGITR cells) (human), sequence (Q9Y5U5 26-241): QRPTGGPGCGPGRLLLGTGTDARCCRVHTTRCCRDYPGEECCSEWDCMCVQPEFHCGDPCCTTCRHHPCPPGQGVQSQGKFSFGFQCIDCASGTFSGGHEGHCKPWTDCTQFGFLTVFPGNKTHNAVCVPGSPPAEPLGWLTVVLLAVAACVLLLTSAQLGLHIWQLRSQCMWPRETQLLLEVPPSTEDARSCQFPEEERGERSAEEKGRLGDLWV

In general, pEC50 refers to −log10 of the EC50, conventionally taken in molar units. High values mean a small EC50, low ones a large EC50. Regarding hIgG1 Isotype Control (antibody), the pEC50 is 6.88.
